Several values for one entry are separate records, joined by “and”; a condition that tells them apart may be missing. Equal entries are not always repeated. Values belong to the molecule of their own block, whether it stands above or below them.
Legend:
[1] = molecular target: C-antigen (human); assay: flow cytometry, SK-BR-3 cells, 5 mg/L
[2] = molecular target: C-antigen (human); assay: flow cytometry, live RAMOS cells, 100 µg/mL
[3] = molecular target: C-antigen (human); assay: cell-fixed ELISA, LS17T cells, 2.5 µg/mL
[4] = molecular target: C-antigen (human); assay: cell-fixed ELISA, DAUDI cells, 2.5 µg/mL
[5] = molecular target: C-antigen (human); assay: cell-fixed ELISA, D-54MG cells, 2.5 µg/mL
[6] = molecular target: C-antigen (human); assay: cell-fixed ELISA, DU-145 cells, 2.5 µg/mL
[7] = molecular target: C-antigen (human); assay: cell-fixed ELISA, MB-468 cells, 2.5 µg/mL
[8] = molecular target: C-antigen (human); assay: radioligand binding to A-375 cells
[9] = molecular target: C-antigen (human); assay: flow cytometry, live WI-38 human diploid lung cells, 100 µg/mL
[10] = molecular target: C-antigen (human); assay: flow cytometry, live RAMOS cells, 200 µg/mL
[11] = molecular target: C-antigen (human); assay: cell-fixed ELISA, SK-BR-3 cells, 2.5 µg/mL
[12] = molecular target: C-antigen (human); assay: cell-fixed ELISA, CEM cells, 2.5 µg/mL
[13] = molecular target: C-antigen (human); assay: cell-fixed ELISA, HEP-2 cells, 2.5 µg/mL
[14] = molecular target: C-antigen (human); assay: cell-fixed ELISA, SK-OV-3 cells, 2.5 µg/mL
[15] = molecular target: C-antigen (human); assay: cell-fixed ELISA, tumour cell lines, against BGA scFv
[16] = molecular target: C-antigen (human); assay: cell-fixed ELISA, CA-46 cells, 2.5 µg/mL
[17] = molecular target: C-antigen (human); assay: cell-fixed ELISA, NCI-H82 cells, 2.5 µg/mL
[18] = molecular target: C-antigen (human); assay: cell-fixed ELISA, SK-MEL-28 cells, 2.5 µg/mL
[19] = molecular target: C-antigen (human); assay: flow cytometry, live CA-46 cells, 200 µg/mL
[20] = molecular target: C-antigen (human); assay: radioligand binding to LS174T cells
[21] = molecular target: C-antigen (human); assay: flow cytometry, live HT-29 cells, 200 µg/mL
[22] = molecular target: C-antigen (human); assay: cell-fixed ELISA, A-375 cells, 2.5 µg/mL
[23] = molecular target: C-antigen (human); assay: cell-fixed ELISA, BT-474 cells, 2.5 µg/mL
[24] = molecular target: C-antigen (human); assay: flow cytometry, live SKMG-1 cells, 100 µg/mL (second row)
[25] = molecular target: C-antigen (human); assay: flow cytometry, live CCRF-CEM cells, 200 µg/mL
[26] = molecular target: C-antigen (human); assay: cell-fixed ELISA, RAMOS cells, 2.5 µg/mL
[27] = molecular target: C-antigen (human); assay: flow cytometry, live SK-BR-3 cells, 200 µg/mL
[28] = molecular target: C-antigen (human); assay: cell-fixed ELISA, BT-20 cells, 2.5 µg/mL
[29] = molecular target: C-antigen (human); assay: flow cytometry, live H9 cells, 100 µg/mL
[30] = molecular target: C-antigen (human); assay: flow cytometry, live MB-468 cells, 200 µg/mL
[31] = molecular target: C-antigen (human); assay: flow cytometry, live H9 cells, 200 µg/mL
[32] = molecular target: C-antigen (human); assay: cell-fixed ELISA, K-562 cells, 2.5 µg/mL
[33] = molecular target: C-antigen (human); assay: cell-fixed ELISA, T-24 cells, 2.5 µg/mL
[34] = molecular target: C-antigen (human); assay: cell-fixed ELISA, A-427 cells, 2.5 µg/mL
[35] = molecular target: C-antigen (human); assay: cell-fixed ELISA, SK-MEL-5 cells, 2.5 µg/mL
[36] = molecular target: C-antigen (human); assay: cell-fixed ELISA, SK-Co-1 cells, 2.5 µg/mL
[37] = molecular target: C-antigen (human); assay: cell-fixed ELISA, SK-LU-1 cells, 2.5 µg/mL
[38] = molecular target: C-antigen (human); assay: cell-fixed ELISA, PC-3 cells, 2.5 µg/mL
[39] = molecular target: C-antigen (human); assay: flow cytometry, live H9 cells, 100 µg/mL; remark: listed apart in the source
[40] = molecular target: C-antigen (human); assay: radioligand binding to SKMG1 cells
[41] = molecular target: C-antigen (human); assay: cell-fixed ELISA, SK-N-MC cells, 2.5 µg/mL
[42] = molecular target: C-antigen (human); assay: cell-fixed ELISA, T47D cells, 2.5 µg/mL
[43] = molecular target: C-antigen (human); assay: cell-fixed ELISA, SKMG-1 cells, 2.5 µg/mL
[44] = molecular target: C-antigen (human); assay: cell-fixed ELISA, U-118MG cells, 2.5 µg/mL
[45] = molecular target: C-antigen (human); assay: flow cytometry, live LS-174T cells, 200 µg/mL
[46] = molecular target: C-antigen (human); assay: flow cytometry, live SKMG-1 cells, 100 µg/mL
[47] = molecular target: C-antigen (human); assay: cell-fixed ELISA, U-2 OS cells, 2.5 µg/mL
[48] = molecular target: C-antigen (human); assay: flow cytometry, live CCRF-CEM cells, 100 µg/mL
[49] = molecular target: C-antigen (human); assay: cell-fixed ELISA, SAOS-2 cells, 2.5 µg/mL
[50] = molecular target: C-antigen (human); assay: cell-fixed ELISA, SW-9000 cells, 2.5 µg/mL
[51] = molecular target: C-antigen (human); assay: flow cytometry, live CA-46 cells, 100 µg/mL
[52] = molecular target: C-antigen (human); assay: cell-fixed ELISA, NCI-69 cells, 2.5 µg/mL
[53] = molecular target: C-antigen (human); assay: flow cytometry, live A-375 cells, 200 µg/mL
[54] = molecular target: C-antigen (human); assay: cell-fixed ELISA, HT-29 cells, 2.5 µg/mL
[55] = molecular target: C-antigen (human); assay: flow cytometry, SK-BR-3 cells, 2 mg/L IgG1
[56] = molecular target: C-antigen (human); assay: flow cytometry, SK-BR-3 cells, 3.3 mg/L IgG1
[57] = molecular target: C-antigen (human); assay: flow cytometry, SK-BR-3 cells, 3.9 mg/L IgG1
[58] = molecular target: C-antigen (human); assay: flow cytometry, SK-BR-3 cells, 4.0 mg/L IgG1

Mean Fluorescence (MF) [1]: 169
Molecule: Control IgG1 (antibody)

% FLUORESCENCE […] [2]: 87%
% Positive Cells [2]: 67%
Mean Fluorescence [2]: 316
O.D. at 450 nm [3]: 0.57 O.D.
O.D. at 450 nm [4]: 1.38 O.D.
O.D. at 450 nm [5]: 0.5 O.D.
O.D. at 450 nm [6]: 0.42 O.D.
O.D. at 450 nm [7]: 0.65 O.D.
Ka [8]: 3.6e+08 M⁻¹
binding sites/cell (binding sites/cell) [8]: 24000
% Positive Cells [9]: 15%
Mean Fluorescence [9]: 255
% FLUORESCENCE […] [10]: 143%
% Positive Cells [10]: 95%
Mean Fluorescence [10]: 423
O.D. at 450 nm [11]: 0.58 O.D.
O.D. at 450 nm [12]: 1.4 O.D.
O.D. at 450 nm [13]: 0.08 O.D.
O.D. at 450 nm [14]: 0.77 O.D.
affinity relative to control scFv [15]: 8 to 50 fold
O.D. at 450 nm [16]: 1.2 O.D.
O.D. at 450 nm [17]: 0.44 O.D.
O.D. at 450 nm [18]: 0.71 O.D.
% FLUORESCENCE […] [19]: 108%
% Positive Cells [19]: 76%
Mean Fluorescence [19]: 262
Ka [20]: 3e+08 M⁻¹
% Positive Cells [21]: 18%
Mean Fluorescence [21]: 179
O.D. at 450 nm [22]: 0.97 O.D.
O.D. at 450 nm [23]: 0.6 O.D.
% Positive Cells [24]: 27%
Mean Fluorescence [24]: 224
% FLUORESCENCE […] [25]: 35%
% Positive Cells [25]: 34%
Mean Fluorescence [25]: 231
O.D. at 450 nm [26]: 1.3 O.D.
% Positive Cells [27]: 36%
Mean Fluorescence [27]: 233
O.D. at 450 nm [28]: 0.54 O.D.
% FLUORESCENCE […] [29]: 15%
% Positive Cells [29]: 9%
Mean Fluorescence [29]: 171
% Positive Cells [30]: 11%
Mean Fluorescence [30]: 156
% FLUORESCENCE […] [31]: 20%
% Positive Cells [31]: 13%
Mean Fluorescence [31]: 186
O.D. at 450 nm [32]: 0.65 O.D.
O.D. at 450 nm [33]: 0.97 O.D.
O.D. at 450 nm [34]: 0.4 O.D.
O.D. at 450 nm [35]: 0.61 O.D.
O.D. at 450 nm [36]: 0.56 O.D.
O.D. at 450 nm [37]: 0.45 O.D.
O.D. at 450 nm [38]: 0.36 O.D.
% Positive Cells [39]: 13%
Mean Fluorescence [39]: 145
Ka [40]: 1.4e+09 M⁻¹
binding sites/cell (binding sites/cell) [40]: 5000
O.D. at 450 nm [41]: 0.5 O.D.
O.D. at 450 nm [42]: 0.64 O.D.
O.D. at 450 nm [43]: 0.56 O.D.
O.D. at 450 nm [44]: 0.47 O.D.
% Positive Cells [45]: 37%
Mean Fluorescence [45]: 233
% Positive Cells [46]: 31%
Mean Fluorescence [46]: 206
O.D. at 450 nm [47]: 0.93 O.D.
% FLUORESCENCE […] [48]: 52%
% Positive Cells [48]: 38%
Mean Fluorescence [48]: 242
O.D. at 450 nm [49]: 0.88 O.D.
O.D. at 450 nm [50]: 0.41 O.D.
% FLUORESCENCE […] [51]: 66%
% Positive Cells [51]: 58%
Mean Fluorescence [51]: 221
O.D. at 450 nm [52]: 0.44 O.D.
% Positive Cells [53]: 80% and 76%
Mean Fluorescence [53]: 207 and 235
O.D. at 450 nm [54]: 0.53 O.D.
B1: H11-scFv (scFv)
scFv: DIVLTQSPGTLSLSPGERATLSCRASQSVSSSYLAWYQQKPGQAPRLLIYGASTRATGMPDRFSGSGSGTDFTLTISRLEPEDFAVYYCQQYGSSPQTPQITFGGGTKVEIKRTVAAPSVSGGGGSGGGGSGGGGSQVQLVESGGGVVQPGRSLRLSCAASGFPFRSFAMHWVRQALGKGLEWVAVISYDGSTKYYADSVKGRFTISRDTSKNTVYLKMNSLRTEDTAVYYCARDQSLLGDYDHYYGLDVWGKGTTVTVSSGSEQKLISEEDLNHHHHH

% Increase of MF above IgG1 control [55]: 2% and 9%
Mean Fluorescence (MF) [55]: 172 and 184
% Increase of MF above IgG1 control [56]: 14% and 10%
Mean Fluorescence (MF) [56]: 192 and 186
% Increase of MF above IgG1 control [57]: 18%
Mean Fluorescence (MF) [57]: 200
% Increase of MF above IgG1 control [58]: 33%
Mean Fluorescence (MF) [58]: 224
B2: recombinantly produced H11 IgG1 (antibody)
VH: QAIVTLNTQAMHPTRWELSHMVDLQAAALVISSFITEHRGLTMEFGLSWVFLVALLRGIQCQVQLVESGGGVVQPGRSLRLSCAASGFPFRSFAMHWVRQALGKGLEWVAVISYDGSTKYYADSVKGRFTISRDTSKNTVYLKMNRLRTEDTAVFYLCERQSLLGDYDHYYGLDAWGKG
VL: LEMDMEFQAQLLFLLLLWLPDITGDIVLTQSPGTLSLSPGERATLSCRASQSVSSSYLAWYQQKPGQAPRLLIYGASTRATGMPDRFSGSGSGTDFTLTISRLEPEDFAVYYCQQYGSSPQTPQITFGGGTKVEIKRTVAAPSVFIFPPS
